Data taken from paper PMC4381339, “Modeling autosomal recessive cutis laxa type 1C in mice reveals distinct functions for Ltbp-4 isoforms” (Disease Models & Mechanisms, 2015).
Values belong to the molecule of their own block, whether it stands above or below them.

Experiments:
[1] = molecular target: rfibulin-4 and rfibulin-5 (mouse); test: SPR; Ltbp-4L-2xStrep and Ltbp-4S-2xStrep after PNGase F digest under non-denaturing conditions, flown over rfibulin-4 and rfibulin-5 immobilized on a Biacore chip; response compared before and after deglycosylation; n=2
[2] = molecular target: T1, recombinant full-length fibulin-4 (mouse, UniProt Q9WVJ9 28-443); test: SPR; BIAcore2000; 570 RUs of rfibulin-4 or 390 RUs of rfibulin-5 amine-coupled to carboxymethyldextran hydrogel 500M chips; Ltbp-4L-2xStrep (0-320 nM) or Ltbp-4S-2xStrep (0-80 nM) flown over as analyte; 1:1 Langmuir fits, kobs plotted against concentration; apparent Kd = koff/kon; settings: both partners purified
T1 construct: Fibulin-4, mouse, full length after the signal peptide; also called rfibulin-4; source: HEK 293 EBNA cells, stably expressed, purified from conditioned medium (streptactin-Sepharose)
T1 sequence (looked up): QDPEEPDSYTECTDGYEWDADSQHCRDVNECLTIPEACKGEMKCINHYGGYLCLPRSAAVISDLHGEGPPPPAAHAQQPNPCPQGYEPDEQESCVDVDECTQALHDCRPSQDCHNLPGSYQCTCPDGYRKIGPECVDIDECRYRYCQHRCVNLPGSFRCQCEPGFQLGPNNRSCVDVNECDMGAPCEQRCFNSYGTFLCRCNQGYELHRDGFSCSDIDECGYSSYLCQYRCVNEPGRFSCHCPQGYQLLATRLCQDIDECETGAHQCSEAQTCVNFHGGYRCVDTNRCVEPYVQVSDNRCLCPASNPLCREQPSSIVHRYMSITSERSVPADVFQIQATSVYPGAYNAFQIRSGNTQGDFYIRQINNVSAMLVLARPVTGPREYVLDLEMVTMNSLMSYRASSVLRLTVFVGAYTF

[3] = molecular target: T2, recombinant full-length fibulin-5 (mouse, UniProt Q9WVH9 24-448); test: as above; settings: both partners purified
T2 construct: Fibulin-5, mouse, full length after the signal peptide; also called rfibulin-5; source: HEK 293 EBNA cells, stably expressed, purified from conditioned medium (streptactin-Sepharose)
T2 sequence (looked up): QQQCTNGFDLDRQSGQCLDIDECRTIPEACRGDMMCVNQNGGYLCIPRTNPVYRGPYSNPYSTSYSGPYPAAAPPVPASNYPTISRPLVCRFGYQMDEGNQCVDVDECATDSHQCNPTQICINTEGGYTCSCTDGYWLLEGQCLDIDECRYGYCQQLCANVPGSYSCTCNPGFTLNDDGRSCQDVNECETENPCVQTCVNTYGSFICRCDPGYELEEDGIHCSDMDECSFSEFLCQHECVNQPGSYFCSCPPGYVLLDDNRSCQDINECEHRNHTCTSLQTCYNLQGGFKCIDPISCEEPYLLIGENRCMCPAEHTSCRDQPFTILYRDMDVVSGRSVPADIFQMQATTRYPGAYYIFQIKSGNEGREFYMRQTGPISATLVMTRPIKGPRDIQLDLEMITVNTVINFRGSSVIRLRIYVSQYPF

percent increase of the SPR signal after deglycosylation (against Ltbp-4S-2xStrep before deglycosylation) [1]: 15 to 20%
Molecule: Ltbp-4S-2xStrep after deglycosylation with PNGase F under non-denaturing conditions (domain or fragment)

Kd [2]: 15.4 nM | koff [2]: 0.0108 s⁻¹ | kon [2]: 700000 M⁻¹ s⁻¹ | Kd [3]: 15.8 nM | koff [3]: 0.0158 s⁻¹ | kon [3]: 1e+06 M⁻¹ s⁻¹
B1: Ltbp-4S-2xStrep (N-terminal fragment of mouse Ltbp-4S) (domain or fragment, UniProt Q8K4G1-2 27-211, looked up)
chain: RPRERLRVRFTPAVCGLRCIHGPTGSRCTPTCAPRNATSVDSGAPGGAAPGGPGFRAFLCPLICHNGGVCVKPDRCLCPPDFAGKFCQLHSSGARPPAPAMPGLTRSVYTMPLANHRDDEHGVASMVSVHVEHPQEASVVVHQVERVSGPWEEANPEALARAEAAARAEAAAPYTVLAQSAPRED
modifications: N-linked glycosylation (shift after PNGase F), residue not given
notes: the first 185 amino acids after the signal peptide (Arg27-Asp211); numbers count on: the short isoform Ltbp-4S; Cloned into a modified pCEP-Pu vector with a 3' 2xStrepII tag through NheI and XhoI; also called N-terminal Ltbp-4S; Ltbp-4S N-terminal fragment; source: HEK 293 EBNA cells, stably expressed, purified from conditioned medium (streptactin-Sepharose); not shown: 2xStrepII, C-terminal, kept

Kd [2]: 3.1 nM | koff [2]: 0.0041 s⁻¹ | kon [2]: 1.3e+06 M⁻¹ s⁻¹ | Kd [3]: 2.4 nM | koff [3]: 0.0053 s⁻¹ | kon [3]: 2.2e+06 M⁻¹ s⁻¹
B2: Ltbp-4L-2xStrep (N-terminal fragment of mouse Ltbp-4L) (domain or fragment, UniProt Q8K4G1-1 25-277, looked up)
chain: SGSSPSPSPSPIEKAVVPSHQAGVAACHCCLDQTPKSSRCTRASCRVRNCPPAKCTGLEGCLTPTPSVPSPSRSPVEKSQVSLNWQPLTLQEARALLRQRRPRGPWARALLKRRPPHRAPAGQARVLCPLICHNGGVCVKPDRCLCPPDFAGKFCQLHSSGARPPAPAMPGLTRSVYTMPLANHRDDEHGVASMVSVHVEHPQEASVVVHQVERVSGPWEEANPEALARAEAAARAEAAAPYTVLAQSAPRED
notes: the first 253 amino acids after the signal peptide (Ser25-Asp277); numbers count on: the long isoform Ltbp-4L; Cloned into a modified pCEP-Pu vector with a 3' 2xStrepII tag through NheI and XhoI; also called N-terminal Ltbp-4L; Ltbp-4L N-terminal fragment; source: HEK 293 EBNA cells, stably expressed, purified from conditioned medium (streptactin-Sepharose); not shown: 2xStrepII, C-terminal, kept
